Laboratory results taken from PMC5622162, “PLPP/CIN Regulates Seizure Activity by the Differential Modulation of Calsenilin Binding to GluN1 and Kv4.2 in Mice” (Frontiers in Molecular Neuroscience, 2017).

Target: T1, calsenilin (CSEN), endogenous in mouse hippocampus or brain (mouse (endogenous in hippocampus), UniProt Q9QXT8 1-256)
T1 construct: calsenilin (CSEN, DREAM, KChIP3), endogenous mouse protein; a mixture of phosphorylated and dephosphorylated forms in the lysate; The state of phosphorylation differs with genotype and treatment; also called pCSEN; DREAM; source: endogenous, mouse hippocampus lysate (RIPA); crude extracts of PLPP/CIN-/- mouse brain
T1 sequence (looked up): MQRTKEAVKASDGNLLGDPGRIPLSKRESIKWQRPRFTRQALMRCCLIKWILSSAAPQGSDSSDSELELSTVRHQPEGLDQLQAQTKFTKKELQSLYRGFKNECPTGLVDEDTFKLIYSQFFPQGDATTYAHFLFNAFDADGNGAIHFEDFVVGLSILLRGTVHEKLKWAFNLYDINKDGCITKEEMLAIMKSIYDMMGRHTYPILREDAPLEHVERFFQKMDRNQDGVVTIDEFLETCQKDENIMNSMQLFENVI
Assay: co-IP; in vitro: recombinant PLPP/CIN (10 ng/ul) added to crude extracts of PLPP/CIN^-/- mouse brain at 30°C for 1 h; co-precipitation with endogenous CSEN and western blot
Details: one partner purified

B1: recombinant human pyridoxal-5'-phosphate phosphatase/chronophin (PLPP/CIN) (enzyme, UniProt Q96GD0 1-296, looked up)
chain: MARCERLRGAALRDVLGRAQGVLFDCDGVLWNGERAVPGAPELLERLARAGKAALFVSNNSRRARPELALRFARLGFGGLRAEQLFSSALCAARLLRQRLPGPPDAPGAVFVLGGEGLRAELRAAGLRLAGDPSAGDGAAPRVRAVLVGYDEHFSFAKLREACAHLRDPECLLVATDRDPWHPLSDGSRTPGTGSLAAAVETASGRQALVVGKPSPYMFECITENFSIDPARTLMVGDRLETDILFGHRCGMTTVLTLTGVSRLEEAQAYLAAGQHDLVPHYYVESIADLTEGLED
notes: pyridoxal-5'-phosphate phosphatase/chronophin (PLPP/CIN), human, recombinant protein from Abcam; the words 'full-length recombinant human' stand before CSEN and are read as holding for PLPP/CIN too; source: bought: Abcam (recombinant)
binding of CSEN with CK1 left in the presence of PLPP/CIN, fold of vehicle: 0.68 fold of vehicle level
